Data as given in PMC9186393.

What was measured:
U2AF65 E425A = U2AF65 E425A (UniProt P26369 1-475, E425A); test: EMSA
U2AF65 WT = U2AF65 WT (UniProt P26369 1-475); test: EMSA
Sequence of U2AF65 WT (P26369 whole entry, one chain of several): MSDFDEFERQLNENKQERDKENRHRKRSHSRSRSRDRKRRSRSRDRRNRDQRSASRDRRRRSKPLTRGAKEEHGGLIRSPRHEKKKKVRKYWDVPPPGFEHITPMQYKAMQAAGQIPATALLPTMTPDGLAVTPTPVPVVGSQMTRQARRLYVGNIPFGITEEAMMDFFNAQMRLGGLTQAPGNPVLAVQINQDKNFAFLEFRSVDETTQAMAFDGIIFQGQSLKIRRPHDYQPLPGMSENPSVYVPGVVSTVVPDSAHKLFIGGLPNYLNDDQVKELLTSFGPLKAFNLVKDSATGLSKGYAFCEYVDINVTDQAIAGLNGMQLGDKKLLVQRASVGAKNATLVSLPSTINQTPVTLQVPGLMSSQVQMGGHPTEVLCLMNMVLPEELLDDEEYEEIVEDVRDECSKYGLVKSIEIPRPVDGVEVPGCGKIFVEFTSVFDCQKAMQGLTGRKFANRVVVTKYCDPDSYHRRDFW

Sequence of U2AF65 E425A (P26369 whole entry E425A, one chain of several): as the sequence (P26369 whole entry, one chain of several) above, with E425A counted along it

Binder | binding result (U2AF65 E425A) | binding result (U2AF65 WT)
CUUAACUCCUCUCUACAGU (ssRNA) [U12 Scn8a 3' splice site] | no binding | no binding
CCUGCUUUUUUCCCUUUUAAGGCCUCGAUCCA (ssRNA) [U2 LPL 3' splice site] | binds | binds
